Assay results: PMC11551755, “Structure-based discovery of first inhibitors targeting the helicase activity of human PIF1” (Nucleic Acids Research, 2024)

Key:
hPIF1HD V258A = target: T1, hPIF1HD V258A (Homo sapiens, UniProt Q9H611 206-620, V258A); experiment: EMSA; 5 mM AMP-PNP, 5.5 mM MgCl2; no inhibitor; 20 mM HEPES-NaOH pH 7.5, 20 mM NaCl, 5.5 mM MgCl2, 5 mM AMP-PNP, 1 mM DTT, 0.1 mg/ml BSA; 0.25 nM DNA; binding temperature not stated explicitly (helicase assay conditions 37 C); 5% PAGE, 0.25x TBE; conditions: protein: recombinant; tags: N-terminal His6 removed; GSRM cloning residues remain; label: 5'-32P; single strand
T1 sequence: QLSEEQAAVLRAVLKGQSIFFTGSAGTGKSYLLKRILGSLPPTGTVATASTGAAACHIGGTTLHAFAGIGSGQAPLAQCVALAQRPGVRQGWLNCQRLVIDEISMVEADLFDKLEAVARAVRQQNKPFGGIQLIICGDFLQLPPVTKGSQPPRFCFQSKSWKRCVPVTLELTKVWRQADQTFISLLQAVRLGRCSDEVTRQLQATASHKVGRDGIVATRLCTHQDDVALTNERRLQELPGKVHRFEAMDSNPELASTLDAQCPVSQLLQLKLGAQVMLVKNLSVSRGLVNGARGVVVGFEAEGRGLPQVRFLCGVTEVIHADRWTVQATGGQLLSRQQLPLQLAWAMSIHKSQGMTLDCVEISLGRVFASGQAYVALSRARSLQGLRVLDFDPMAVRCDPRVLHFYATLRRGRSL

hPIF1HD V258L = target: T2, hPIF1HD V258L (Homo sapiens, UniProt Q9H611 206-620, V258L); experiment: as above; conditions: protein: recombinant; tags: N-terminal His6 removed; GSRM cloning residues remain; label: 5'-32P; single strand
T2 sequence: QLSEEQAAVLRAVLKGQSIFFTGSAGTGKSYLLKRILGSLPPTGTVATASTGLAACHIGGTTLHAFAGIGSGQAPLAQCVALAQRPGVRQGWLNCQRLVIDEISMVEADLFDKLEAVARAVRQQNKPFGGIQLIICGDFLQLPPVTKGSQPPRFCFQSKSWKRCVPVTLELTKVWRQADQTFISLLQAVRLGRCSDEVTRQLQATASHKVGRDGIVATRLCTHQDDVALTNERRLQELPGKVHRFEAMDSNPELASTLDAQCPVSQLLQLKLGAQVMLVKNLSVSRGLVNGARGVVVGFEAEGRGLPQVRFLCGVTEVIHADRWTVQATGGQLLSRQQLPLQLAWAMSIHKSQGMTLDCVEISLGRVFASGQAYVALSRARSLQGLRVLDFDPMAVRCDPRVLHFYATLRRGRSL

B1: oligo d(T)55 (ssDNA)
DNA: TTTTTTTTTTTTTTTTTTTTTTTTTTTTTTTTTTTTTTTTTTTTTTTTTTTTTTT
B1 was tested, and the binding signal (hPIF1HD V258A) was ~2 fold reduced vs wild type and the binding signal (hPIF1HD V258L) was ~1 fold vs wild type (near equivalent).
